Test results as given in article PMC6093710, “The Peptidisc, a simple method for stabilizing membrane proteins in detergent-free solution” (eLife, 2018).
No end group written: not given here.

Legend:
Conditions in all cases: both partners purified
[1] = target: Photosynthetic bacterial reaction center (BRC) from Rhodobacter sphaeroides, His-tagged (Rhodobacter sphaeroides, UniProt P0C0Y8 1-282; P0C0Y9 1-308; P0C0Y7 1-260); assay: SDS-PAGE densitometry of gel-filtered peptidiscs; peptidiscs made on-column, one more gel filtration to remove free NSPr; 15% SDS-PAGE, Coomassie fluorescence of the NSPr band against a standard curve of NSPr; triplicate gels
[2] = target: T1, MalFGK2 ABC transporter (maltose transporter), His-tagged (UniProt P02916 1-514; P68183 1-296; P68187 1-371); assay: as above
T1 construct: also called MalGFK2
T1 sequence (P02916 whole entry, chain 1 of 3): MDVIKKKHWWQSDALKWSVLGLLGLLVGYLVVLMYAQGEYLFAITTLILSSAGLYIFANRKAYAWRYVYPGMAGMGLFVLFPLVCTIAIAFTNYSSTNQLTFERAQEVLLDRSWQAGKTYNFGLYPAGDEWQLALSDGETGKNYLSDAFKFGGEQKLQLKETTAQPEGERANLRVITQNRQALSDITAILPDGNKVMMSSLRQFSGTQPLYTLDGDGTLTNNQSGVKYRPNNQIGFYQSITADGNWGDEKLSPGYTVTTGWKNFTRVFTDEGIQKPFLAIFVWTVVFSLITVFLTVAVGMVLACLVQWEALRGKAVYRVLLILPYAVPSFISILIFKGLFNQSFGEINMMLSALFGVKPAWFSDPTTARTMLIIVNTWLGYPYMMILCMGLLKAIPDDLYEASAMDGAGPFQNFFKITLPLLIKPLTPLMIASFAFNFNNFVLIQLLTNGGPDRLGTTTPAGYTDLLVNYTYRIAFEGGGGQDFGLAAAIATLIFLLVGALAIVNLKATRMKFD
T1 sequence (P68183 whole entry, chain 2 of 3): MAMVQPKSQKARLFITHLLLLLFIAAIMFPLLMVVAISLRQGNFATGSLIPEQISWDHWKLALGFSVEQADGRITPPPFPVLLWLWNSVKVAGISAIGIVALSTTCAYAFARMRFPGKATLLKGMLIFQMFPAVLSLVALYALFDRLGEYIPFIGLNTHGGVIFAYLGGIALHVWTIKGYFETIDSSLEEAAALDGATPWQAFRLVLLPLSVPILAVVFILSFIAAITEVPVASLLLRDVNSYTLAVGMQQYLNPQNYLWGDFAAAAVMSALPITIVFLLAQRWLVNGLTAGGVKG
T1 sequence (P68187 whole entry, chain 3 of 3): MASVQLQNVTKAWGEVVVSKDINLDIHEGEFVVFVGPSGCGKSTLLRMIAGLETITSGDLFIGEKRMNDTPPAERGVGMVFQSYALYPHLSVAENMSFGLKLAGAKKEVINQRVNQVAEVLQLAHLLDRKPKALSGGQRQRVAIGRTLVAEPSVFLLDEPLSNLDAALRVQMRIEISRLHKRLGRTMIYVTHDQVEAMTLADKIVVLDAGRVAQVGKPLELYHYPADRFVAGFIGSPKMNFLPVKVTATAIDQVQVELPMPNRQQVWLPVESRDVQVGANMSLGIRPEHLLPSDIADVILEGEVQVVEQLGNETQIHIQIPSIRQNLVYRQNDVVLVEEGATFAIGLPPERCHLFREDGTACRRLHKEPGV

Colicin M, His-tagged = target: T2, Colicin M, His-tagged (UniProt P05820 1-271); assay: native gel or EMSA; about 2 µg FhuA in peptidisc incubated with TonB23-329 (2 µg) or ColM (5 µg), with or without ferricrocin, 5 min at room temperature; CN-PAGE, Coomassie; free TonB and ColM do not migrate
T2 construct: colicin M; Construct as in Mills et al., 2014; also called ColM; source: E. coli BW25113, plasmid pMLD189, purified
T2 sequence: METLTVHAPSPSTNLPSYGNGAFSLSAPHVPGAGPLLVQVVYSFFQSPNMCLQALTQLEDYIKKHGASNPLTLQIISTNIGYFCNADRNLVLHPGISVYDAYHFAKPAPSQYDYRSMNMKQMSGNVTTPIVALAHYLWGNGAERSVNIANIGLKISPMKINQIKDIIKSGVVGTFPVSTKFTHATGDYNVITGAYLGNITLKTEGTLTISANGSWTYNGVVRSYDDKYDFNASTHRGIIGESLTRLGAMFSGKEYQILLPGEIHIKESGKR

[3] = target: T3, FhuA receptor, His-tagged (UniProt P06971 34-747); assay: streptavidin blot quantification of biotinylated peptide in gel-filtered peptidiscs; FhuA reconstituted with NSPrbio; western blot with streptavidin-Alexa 680, against a standard curve
T3 construct: also called FhuA transporter
T3 sequence (looked up): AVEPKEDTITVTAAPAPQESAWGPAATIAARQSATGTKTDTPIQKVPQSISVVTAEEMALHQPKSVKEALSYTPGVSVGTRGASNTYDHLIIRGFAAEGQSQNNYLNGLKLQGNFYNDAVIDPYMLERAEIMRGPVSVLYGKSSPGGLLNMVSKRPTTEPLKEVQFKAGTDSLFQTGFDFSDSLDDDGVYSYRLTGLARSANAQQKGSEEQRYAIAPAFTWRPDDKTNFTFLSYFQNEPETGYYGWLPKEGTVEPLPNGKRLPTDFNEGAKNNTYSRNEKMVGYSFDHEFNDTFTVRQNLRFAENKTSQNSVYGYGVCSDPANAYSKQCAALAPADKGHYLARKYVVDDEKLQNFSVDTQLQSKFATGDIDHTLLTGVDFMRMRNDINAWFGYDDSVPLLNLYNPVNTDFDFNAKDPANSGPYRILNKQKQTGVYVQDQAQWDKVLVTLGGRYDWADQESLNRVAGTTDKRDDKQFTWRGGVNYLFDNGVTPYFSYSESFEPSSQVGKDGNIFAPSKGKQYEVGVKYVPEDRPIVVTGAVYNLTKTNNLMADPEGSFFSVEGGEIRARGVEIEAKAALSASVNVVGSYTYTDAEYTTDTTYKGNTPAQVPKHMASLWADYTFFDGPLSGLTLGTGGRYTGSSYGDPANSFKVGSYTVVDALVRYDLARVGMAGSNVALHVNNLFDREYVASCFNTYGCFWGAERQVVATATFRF

B1: Peptide NSPr (reversed nanodisc scaffold peptide, peptidisc scaffold) (peptide)
peptide: FAEKFKEAVKDYFAKFWDPAAEKLKEAVKDYFAKLWD
notes: also called NSP (used loosely in some legends and methods); source: synthetic peptide; bought: A+ peptide Co. Ltd. and Genscript (purity >80%)
stoichiometry N [1]: 9 NSPr/disc
stoichiometry N [2]: 10 NSPr/disc

B2: FhuA reconstituted in peptidisc (FhuA-NSPr) (complex)
chain: T3 sequence (looked up)
peptide: B1 peptide
notes: also called FhuA-peptidisc; FhuA peptidisc; copies: 1 + 10
binding result (Colicin M, His-tagged): binds

B3: Peptide NSPrbio (NSPr labelled with a biotin group) (peptide)
peptide: B1 peptide
modifications: also: biotin group, position not given here
notes: source: synthetic peptide; bought: KareBay
stoichiometry N [3]: 10 NSPr/disc
